Consider 1 molecule from PMC4210639 (Neuron, 2014).

The experiment addresses T1, FLRT3^LRR (leucine-rich repeat domain of mouse FLRT3) (mouse, UniProt Q8BGT1 29-359).
T1 sequence: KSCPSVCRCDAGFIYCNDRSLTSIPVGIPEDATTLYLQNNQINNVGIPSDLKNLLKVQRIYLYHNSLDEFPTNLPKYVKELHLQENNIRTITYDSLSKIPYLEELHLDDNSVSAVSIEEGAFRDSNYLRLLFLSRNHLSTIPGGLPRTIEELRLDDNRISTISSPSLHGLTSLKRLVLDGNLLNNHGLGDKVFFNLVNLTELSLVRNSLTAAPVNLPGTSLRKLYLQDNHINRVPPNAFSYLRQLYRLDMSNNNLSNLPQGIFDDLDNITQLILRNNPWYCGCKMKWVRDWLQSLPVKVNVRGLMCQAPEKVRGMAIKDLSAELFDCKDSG
The experiment is described as follows: SPR. On the technique in general: In SPR one partner is held on a chip, and binding of the other changes the refractive index at the surface.

B1: Unc5A^ecto (human Unc5A ectodomain) (domain or fragment)
chain: not shown
Regarding B1, the binding result was “binds”.
